Entries after “also recorded” stand apart in the source; their conditions may differ.
Experiments:
BALb/c mice = experiment: Mouse tail bleeding time; assay type: in vivo; settings: tail transected after 10 min
Protocol: After 10 min, the distal tip 1.5 mm of the mouse tail was transected and the blood oozed was soaked with filter paper very 30 seconds until the bleeding stops. The bleeding time was defined as the time elapsed from the tail transection to the stoppage of bleeding.

SD rats = experiment: Rat arterio-venous shunt thrombus formation model; assay type: in vivo
Protocol: 50 SPF grade male SD rats (provided by the laboratory animal center of Guangdong Medical College, 300-350 g body weight) were randomly divided into saline control group, positive control group (100 U·kg^−1 heparin sodium, Shanghai No. 1 Biochemical & Pharmaceutical Co. Ltd), and rNAPT-1 low dose (100 μg·kg^−1), middle dose (1 mg·kg^−1), high dose group (5 mg·kg^−1), 10 rats each group, respectively. These rats were anaesthetized with 10% chloral hydrate (250 mg/kg) by intraperitoneal injection. The right common carotid artery and left external jugular vein was exposed and dissected bluntly from the surrounding tissue after a surgical incision. One end of a polyethylene pipe (1.5 mm of diameter, 22 cm of length) with a 5 cm length of No. 4 operation suture in it and filled with 50 U/mL heparin solution was inserted into the right common carotid artery, and the other end was inserted into the left external […] vein. 5 min after tail intravenous injection of drugs, the artery clamp was opened, and blood flow from the right common carotid artery to the left external jugular vein through the polyethylene pipe. After 15 min of blood flow, the suture line was quickly removed and weighed. The net weight of thrombus is total weight minus suture weight; inhibition rate=(wet weight of thrombus of saline control group−wet weight of thrombus of administration group)/wet weight of thrombus of saline control group×100%.

human fXa = target: T1, human fXa (Homo sapiens, UniProt P00742); experiment: Chromogenic assay, fXa; assay type: biochemical
T1 construct: Human coagulation factors IIa (thrombin), Xa, XIa, XIIa, EGR-fXa; purchased Haematologic Technologies Inc (United States)
Source text: (§1) The recombinant anticoagulant polypeptides in the present invention were expressed in E. coli and purified in our laboratory, of which the activities against coagulation factors were investigated by chromogenic assays. Human coagulation factors IIa (thrombin), Xa, XIa, XIIa, EGR-fXa were products of Haematologic Technologies Inc (United States). Recombinant fVIIa was products of Novo-Nordisk (Denmark). Recombinant soluble tissue factor (sTF) was purchased from Protgen (Beijing, China). The following chromogenic substrates were used for these coagulation factor assays: S2765 for human fXa, S2288 for human fVIIa and fIIa, 52366 for human fXIa and fXIIa, respectively.
(§2) The chromogenic assays were carried out in a total reaction volume of 100 μl in individual wells of a 96-well microtiter plate. 50 μl fIIa, fXa, fXIa, or fXIIa (final concentration: 1 nM) was incubated with 10 μl recombinant anticoagulant polypeptide at various concentrations (or PBS control group) Assays for the detection activity of fVIIa: 50 μl fVIIa+TF (1 μM) and EGR-fXa (final concentration 500 nM) was incubated for 15 mins at 25° C., respectively. After the addition of 40 μl of prewarmed chromogenic substrate to a final concentration of 400 μM, the changes of absorbance at 405 nm were monitored by using an E1x808 kinetic microtiter reader. The data were used to calculate the velocities of response.

human fXIIa = target: T2, human fXIIa (Homo sapiens, UniProt P00748); experiment: Chromogenic assay, fXIIa; assay type: biochemical
T2 construct: Human coagulation factors IIa (thrombin), Xa, XIa, XIIa, EGR-fXa; purchased Haematologic Technologies Inc (United States)
T2 sequence (P00748 373-615 limits assumed): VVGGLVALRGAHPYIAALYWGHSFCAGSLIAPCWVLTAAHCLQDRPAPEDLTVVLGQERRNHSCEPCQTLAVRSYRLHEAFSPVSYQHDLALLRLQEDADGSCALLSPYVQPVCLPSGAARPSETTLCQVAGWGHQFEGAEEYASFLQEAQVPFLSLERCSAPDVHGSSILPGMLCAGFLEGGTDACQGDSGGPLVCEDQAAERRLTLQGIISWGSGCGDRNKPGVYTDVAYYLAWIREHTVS
T2 sequence (P00748 20-372 limits assumed): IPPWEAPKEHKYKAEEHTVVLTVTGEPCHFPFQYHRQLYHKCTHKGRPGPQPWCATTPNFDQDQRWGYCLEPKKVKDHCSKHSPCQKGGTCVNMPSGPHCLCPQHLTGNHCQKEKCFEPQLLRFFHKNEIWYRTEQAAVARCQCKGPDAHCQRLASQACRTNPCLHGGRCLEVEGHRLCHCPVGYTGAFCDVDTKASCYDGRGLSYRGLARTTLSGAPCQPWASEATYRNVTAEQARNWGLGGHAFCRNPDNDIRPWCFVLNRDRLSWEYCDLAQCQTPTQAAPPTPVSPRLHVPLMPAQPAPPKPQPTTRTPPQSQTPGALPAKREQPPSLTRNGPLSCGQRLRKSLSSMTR
Source text: as §1, §2

human fIIa (thrombin) = target: T3, human fIIa (thrombin) (Homo sapiens, UniProt P00734); experiment: Chromogenic assay, fIIa (thrombin); assay type: biochemical
T3 construct: Human coagulation factors IIa (thrombin), Xa, XIa, XIIa, EGR-fXa; purchased Haematologic Technologies Inc (United States)
Source text: as §1, §2

T1 sequence (P00742 41-179 limits assumed): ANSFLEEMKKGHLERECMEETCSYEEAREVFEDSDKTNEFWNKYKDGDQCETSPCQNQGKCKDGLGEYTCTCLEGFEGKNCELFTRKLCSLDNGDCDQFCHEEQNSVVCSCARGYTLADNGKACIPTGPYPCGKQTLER
T1 sequence (P00742 235-488 limits assumed): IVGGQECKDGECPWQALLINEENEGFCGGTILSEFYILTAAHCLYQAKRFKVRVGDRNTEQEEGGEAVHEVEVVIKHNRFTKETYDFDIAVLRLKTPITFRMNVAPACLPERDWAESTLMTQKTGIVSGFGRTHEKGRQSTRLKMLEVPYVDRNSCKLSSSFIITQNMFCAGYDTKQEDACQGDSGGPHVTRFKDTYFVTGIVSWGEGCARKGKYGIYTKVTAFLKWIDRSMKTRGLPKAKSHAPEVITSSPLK

B1: NAPTin-1 (protein)
chain: NPSCGENERHDECSRKECDPKCKYDGTEEKDDEKPVVCLTRVCYGDCICRDGFLRNKNGACVKAEDCELD
modifications: Sequence derived from Ancylostoma caninum or Synthetic
B1 was tested, and the “Bleeding time” value (BALb/c mice; 100 μg·kg^−1 tail vein) was 8.34 ± 1.7 min, the “Bleeding time” value (BALb/c mice; 1 mg·kg^−1 tail vein) was 8.30 ± 2.1 min and the “Bleeding time” value (BALb/c mice; 5 mg·kg^−1 tail vein) was 8.28 ± 2.3 min. For the same molecule, the “wet weight of thrombus” value (SD rats; 100 μg·kg^−1 i.v.) was 8.5 ± 1.8 mg, the Inhibition rate % (SD rats; 100 μg·kg^−1 i.v., vs saline control) was 80.5% and the “wet weight of thrombus” value (SD rats; 1 mg·kg^−1 i.v.) was 1.5 ± 0.3 mg. For the same molecule, the Inhibition rate % (SD rats; 1 mg·kg^−1 i.v., vs saline control) was 97%, the “wet weight of thrombus” value (SD rats; 5 mg·kg^−1 i.v.) was 0.3 ± 0.2 mg and the Inhibition rate % (SD rats; 5 mg·kg^−1 i.v., vs saline control) was 99%. The “effect on arterio-venous shunt thrombosis (in words)” value (SD rats; vs saline control, P<0.01) was “could inhibit rat arterio-venous shunt thrombosis”, the “effect on fXa activity (in words)” value (human fXa; 100 nM) was “without affecting; also recorded: no significant inhibitory activity” and the “effect on fXa activity (in words)” value (human fXa; 200 nM) was “without affecting”. For the same molecule, the “effect on fXIIa activity (in words)” value (human fXIIa; 100 nM) was “without affecting”, the “effect on fXIIa activity (in words)” value (human fXIIa; 200 nM) was “without affecting” and the “effect on fIIa activity (in words)” value (human fIIa (thrombin); 100 nM) was “without affecting”. For the same molecule, the “effect on fIIa activity (in words)” value (human fIIa (thrombin); 200 nM) was “without affecting”.
